Results published in patent US20250042994A1 (HAINAN SIMCERE ZAIMING PHARMACEUTICAL, published 2025).

T1: human CD19 on Raji cells (human, UniProt P15391 20-556)
T1 construct: whole, on cells
T1 sequence (looked up): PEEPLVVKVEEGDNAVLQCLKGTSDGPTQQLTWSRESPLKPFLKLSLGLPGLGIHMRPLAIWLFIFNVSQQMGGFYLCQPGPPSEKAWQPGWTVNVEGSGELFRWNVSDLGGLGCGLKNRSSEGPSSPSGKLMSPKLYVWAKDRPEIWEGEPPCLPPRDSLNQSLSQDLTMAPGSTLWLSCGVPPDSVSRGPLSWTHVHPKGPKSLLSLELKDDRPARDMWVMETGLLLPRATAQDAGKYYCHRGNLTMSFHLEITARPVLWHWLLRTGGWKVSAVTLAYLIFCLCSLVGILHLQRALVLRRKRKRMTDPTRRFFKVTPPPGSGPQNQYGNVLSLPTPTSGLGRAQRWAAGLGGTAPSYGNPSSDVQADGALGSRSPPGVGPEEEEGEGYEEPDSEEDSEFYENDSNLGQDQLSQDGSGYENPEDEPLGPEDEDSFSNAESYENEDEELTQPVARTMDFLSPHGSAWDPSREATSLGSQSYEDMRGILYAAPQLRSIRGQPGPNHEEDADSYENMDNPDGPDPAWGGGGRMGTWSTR

T2: human CD19 on CHO-K1-human CD19 cells (human, UniProt P15391 20-556)
T2 construct: whole, on cells; also called CHO-K1-human CD19-2C8
T2 sequence (looked up): T1 sequence (looked up)

T3: cynomolgus monkey CD19 on peripheral blood B cells (cynomolgus monkey (Macaca fascicularis), UniProt A0A2K5W8L9 20-557)
T3 construct: whole, on cells; also called cynomolgus monkey B cells
T3 sequence: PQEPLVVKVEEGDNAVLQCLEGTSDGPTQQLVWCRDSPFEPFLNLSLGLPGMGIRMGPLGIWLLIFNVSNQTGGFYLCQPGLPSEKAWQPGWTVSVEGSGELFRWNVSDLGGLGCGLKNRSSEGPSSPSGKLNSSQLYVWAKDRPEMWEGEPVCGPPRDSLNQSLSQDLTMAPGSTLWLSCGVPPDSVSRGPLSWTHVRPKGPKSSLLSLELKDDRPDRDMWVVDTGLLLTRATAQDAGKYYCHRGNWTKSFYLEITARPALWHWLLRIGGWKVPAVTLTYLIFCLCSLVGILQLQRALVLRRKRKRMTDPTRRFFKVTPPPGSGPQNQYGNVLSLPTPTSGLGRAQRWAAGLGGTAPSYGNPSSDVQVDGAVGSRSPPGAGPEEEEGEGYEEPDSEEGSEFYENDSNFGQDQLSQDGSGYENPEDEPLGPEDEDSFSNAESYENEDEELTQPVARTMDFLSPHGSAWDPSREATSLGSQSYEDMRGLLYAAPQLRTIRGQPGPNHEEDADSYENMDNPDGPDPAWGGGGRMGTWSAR

B1: F4.58.6 (antibody, human IgG1, V domains shown)
VH: QVQLQQPGAELVKPGASVKLSCKASGYTFTSYWMHWVKQRPGQGLEWIGEIDPSDSYSNYNQKFKGKATLTVDKSSSTAYMQLSSLTSEDSAVYYCARSNYGSSYGYFDVWGAGTTVTVSS
VL: QIVLTQSPAIMSASPGEKVTMTCSVSSSLSYMHWYQQKPGTSPKRWIYDTSKLASGVPARFSGSGSGTSYSLTISSMEAEDAATYYCHQRSSYPTFGGGTKLEIK
notes: human-murine chimeric antibody, human IgG1
B2: F3.124.7 (antibody, human IgG1, V domains shown)
VH: EVQLQQSGPVLVKPGASVKMSCKASGYTFTDYYMNWVKQRHGKSLEWIGISNPYNGGTSYNQKFKDKATLTVDKSSSTAYMELNSLTSEDSAVYYCAREGGTAQPTSGMDYWGQGTSVTVSS
VL: NIMMTQSPSSLAVSAGEKVTMSCKSSQSVLYSSNQKNYLAWYQQKPGQSPKLLIYWASTRESGVPDRFTGSGSGTDFTLTISSVQPEDPAVYYCHQYRSSYTFGGGTKLEIK
notes: as for B1

Legend:
human CD19 on Raji cells = biological target: T1, human CD19 on Raji cells; experiment: FACS on Raji cells
[1] = biological target: T2, human CD19 on CHO-K1-human CD19 cells; experiment: FACS on CHO-K1-human CD19 cells
[2] = biological target: T4, monkey CD19 on HEK293T-monkey CD19 cells (monkey); experiment: FACS on HEK293T-monkey CD19 cells
T4 construct: whole, on cells
Summary of the method: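 Cells blocked in PBS + 2% (w/w) BSA at 2×10⁶ cells/ml, then incubated with test antibody on ice for 2 h. After washes, binding read by flow cytometry as mean fluorescence intensity (MFI). EC50 from fitted MFI curves. Parental HEK293T cells run by the same method.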

[3] = biological target: T3, cynomolgus monkey CD19 on peripheral …; experiment: FACS, cynomolgus PBMC, CD20+ B cells
[4] = biological target: T3, cynomolgus monkey CD19 on peripheral …; experiment: FACS, cynomolgus monkey PBMC, 1 nM antibody, co-stained with CD20 antibody
Experimental: The monkey peripheral blood mononuclear cells were extracted from fresh cynomolgus monkey peripheral blood (purchased from Shanghai Medicilon Inc.) according to the instructions of Ficoll-Paque Plus (purchased from GE Healthcae, catalog number: 171440-02). After the cell suspension was centrifuged, the cells were resuspended in PBS containing 1% BSA, and then the cells were counted. […] The mixture was incubated for 1 h at room temperature. After washing the cells three times, APC-labeled secondary antibody anti-human IgG Fc (catalog number: 409306, purchased from Biolegend) was added. After incubation at room temperature in the dark for 30 minutes, the cells were washed 5 times, gently resuspended with PBS containing 1% BSA, and detected and analyzed by FACS (FACS Canto™, purchased from BD Company), in which CD20 was used as a marker of B cells to gate the CD20-positive B cell population, the proportion of the chimeric antibody-labeled positive cells was analyzed, and the proportion of the chimeric antibody positive cell population to B cell population was calculated after treatments with the chimeric antibodies at the concentrations of 100 nM, 10 nM and 1 nM, respectively.

monkey CD19 protein [5] = biological target: T5, monkey CD19 protein (monkey); experiment: ELISA, coated monkey CD19 protein
T5 construct: also called monkey CD19-His protein
Experimental: (§1) Human CD19-his protein (purchased from ACROBiosystems, catalog number: CD9-H52H2) was diluted with PBS to a final concentration of 4 μg/mL, and then added to a 96-well ELISA plate at 100 μl/well. The plate was sealed with a plastic film and incubated overnight at 4° C., the plate was washed 2 times with PBS the next day, and then a blocking solution [PBS+2% (w/w) BSA] was added for blocking at room temperature for 2 h. The blocking solution was poured off, and 100 nM gradiently diluted CD19 chimeric antibody or control antibody was added at 50 μl/well. After incubation at 37° C. for 2 h, the plate was washed 3 times with PBS. […] TMB substrate was added at 50 μl/well, and incubated at room temperature for 10 min, and then a stop solution (1.0 N HCl) was added at 50 μl/well. The OD450 nm values were read by an ELISA microplate reader (Multimode Plate Reader, EnSight, purchased from Perkin Elmer).
(§2) In order to detect the species cross-binding activity of the chimeric antibodies, an ELISA plate was coated with commercial murine CD19 (ACROBiosystems, catalog number: 50510-M08H) and monkey CD19 (ACROBiosystems, catalog number: 90051-C08H), respectively, and the ELISA detection was performed according to the method in example 5.1.

monkey CD19 protein [6] = biological target: T5, monkey CD19 protein; experiment: ELISA on coated monkey CD19-His
Experimental: as §1, §2

| Binder | EC50 (human CD19 on Raji cells) | Maximum mean fluorescence intensity (human CD19 on Raji cells) | EC50 [1] | Maximum mean fluorescence intensity [1] | Maximum mean fluorescence intensity [2] | Proportion of chimeric antibody positive cells to B cells (%) at 1 nM [3] | Proportion of chimeric antibody positive cells to B cells (%) at 10 nM [3] | Proportion of chimeric antibody positive cells to B cells (%) at 100 nM [3] | ratio of chimeric antibody-labeled positive cells to CD20 positive cells [4] | OD450 at 0.0001 nM (monkey CD19 protein [5]) | OD450 at 0.001 nM (monkey CD19 protein [5]) | OD450 at 0.01 nM (monkey CD19 protein [5]) | OD450 at 0.10 nM (monkey CD19 protein [5]) | OD450 at 1.00 nM (monkey CD19 protein [5]) | OD450 at 10 nM (monkey CD19 protein [5]) | OD450 at 100 nM (monkey CD19 protein [5]) | EC50 [2] | EC50 (read off the curve) (monkey CD19 protein [6]) |
| --- | --- | --- | --- | --- | --- | --- | --- | --- | --- | --- | --- | --- | --- | --- | --- | --- | --- | --- |
| B1 | 1.31 nM | 26100 | 1.09 nM | 56700 | 81 | 1% | 2% | 4% | 2% | – | – | – | – | – | – | – | – | – |
| B2 | 2.46 nM | 19100 | 1.35 nM | 47500 | 112000 | 23% | 65% | 92% | – | 0.08 OD450 | 0.12 OD450 | 0.41 OD450 | 1.44 OD450 | 1.93 OD450 | 2.04 OD450 | 1.93 OD450 | 1.27 nM | ~0.04 nM |
